Data on 14 molecules can be found in patent US20250179196A1 (Janssen / Centocor, published 2025).

Changes are numbered by the printed parent chain. Bounds are passed on as bounds.

T1: human IL-23R extracellular domain (ECD) protein (human, UniProt Q5VWK5 24-355)
T1 construct: Recombinant ECD; also called hu IL-23R ECD
T1 sequence: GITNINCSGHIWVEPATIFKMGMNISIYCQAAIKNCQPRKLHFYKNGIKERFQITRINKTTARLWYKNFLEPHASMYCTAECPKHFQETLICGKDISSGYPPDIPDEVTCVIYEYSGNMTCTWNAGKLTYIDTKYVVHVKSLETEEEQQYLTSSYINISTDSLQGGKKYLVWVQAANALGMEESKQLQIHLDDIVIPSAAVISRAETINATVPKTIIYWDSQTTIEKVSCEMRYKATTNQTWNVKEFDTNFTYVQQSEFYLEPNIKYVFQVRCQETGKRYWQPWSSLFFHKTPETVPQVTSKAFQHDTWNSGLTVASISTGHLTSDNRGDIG

T2: human IL-23R expressed on the cell surface of stably transfected iLite and HEK cell lines (human, UniProt Q5VWK5 24-629)
T2 construct: whole, on cells; Same receptor on two transfected cell lines; the cell line is named under assay; also called human IL-23R iLite cells; human IL-23R HEK cells
T2 sequence (looked up): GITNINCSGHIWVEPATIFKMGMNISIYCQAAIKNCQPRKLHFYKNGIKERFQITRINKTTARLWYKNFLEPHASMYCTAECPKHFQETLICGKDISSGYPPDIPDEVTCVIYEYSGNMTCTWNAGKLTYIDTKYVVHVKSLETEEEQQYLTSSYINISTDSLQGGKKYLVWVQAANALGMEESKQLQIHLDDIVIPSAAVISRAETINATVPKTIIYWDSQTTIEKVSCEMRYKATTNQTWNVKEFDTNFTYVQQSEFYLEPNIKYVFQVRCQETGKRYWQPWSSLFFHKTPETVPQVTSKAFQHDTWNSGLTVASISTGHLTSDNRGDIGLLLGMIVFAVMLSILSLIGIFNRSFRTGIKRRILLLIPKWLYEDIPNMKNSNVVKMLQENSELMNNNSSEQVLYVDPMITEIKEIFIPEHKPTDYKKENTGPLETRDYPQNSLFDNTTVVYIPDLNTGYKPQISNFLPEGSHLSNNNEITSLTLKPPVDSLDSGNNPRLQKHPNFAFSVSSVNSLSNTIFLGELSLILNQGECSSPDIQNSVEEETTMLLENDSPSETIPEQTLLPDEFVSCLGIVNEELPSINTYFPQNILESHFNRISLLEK

B1: I23RB56 (antibody, mouse IgG2a, kappa, V domains shown)
VH: EVKLVESGGGLVKPGGSLKLSCAASGFTFSSYAMSWVRQTPEKRLEWVAAINSNDGSTYYPDTVKDRFTISRDNAKNTLYLQMSSLRSEDTALYYCARHFLYFSNFYYFDYWGQGTTLTVSS
VL: DIVMTQSPKFLLVSAGDRVTITCKASQSVSNDVAWYQQKPGQSPKLLIYYASNRYTGVPDRFTGSGYGTVFTFTISTVQAEDLAVYFCQQDYSSPFTFGSGTKLEIKR
notes: immunization; mouse IgG2a/kappa
B2: I23RB85 (antibody, mouse IgG2a, kappa, V domains shown)
VH: DVQLQESGPGLVAPSQSLSITCTVSGFSFNTYAITWVRQPPGRGLEWLGVLWPGGGISYNLALKSRLTISRDSSKSQVFLEMNSLQTDDTARYYCARNWRHYDGSYAMDFWGQGTSVTVSS
VL: DIVLTQSPLSLFVSLGDQASISCRSSQSLVHSNGNTYLHWYLQKPGQSPKLLIYKVSNRFSGVPDRFSGSGSGTDFTLKISRVEAEDLGVYFCSQSTHVPWTFGGGTRLEIKR
notes: as for B1
B3: I23RB45 (antibody, mouse IgG2a, kappa, V domains shown)
VH: QVTLKESGPGILQPSQTLSLTCSFSGFSLSTYGMGVSWIRQPSGKGLEWLAHIYWDDDKRYNPSLKSRLTISKDTSNNQVFLKITSVDTADTATYYCAQRALPLLGQKAPFDYWGQGTTLTVSS
VL: DIVLTQSQKFISTSVGDRVSITCKASQNVRTAVAWYQQKPGQSPKLLIYLPSNRHTGVPDRFTGSGSGTVFTLTISNVQSEDQADYFCLQHWNYPLTFGAGTKLELKR
notes: as for B1
B4: I23RB30 (antibody, mouse IgG2a, kappa, V domains shown)
VH: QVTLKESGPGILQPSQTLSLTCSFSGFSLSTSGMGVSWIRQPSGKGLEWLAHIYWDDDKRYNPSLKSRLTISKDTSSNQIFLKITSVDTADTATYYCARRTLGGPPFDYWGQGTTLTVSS
VL: B3 VL with K9R, I11M, V29I, L46A, V70D, Q83L
notes: as for B1
B5: I23RB153 (antibody, mouse IgG2a, kappa, V domains shown)
VH: EVKLVESGGGLVQPGGSLKLSCAASGFTFSSDTMSWVRQTPEKRLELVAEISSNGGSTYHIDTVKGRFTISRDNAKNTLYLQMSSLKSEDTAMYYCASPGYPWFAYWGQGTTVTVSA
VL: DIVMTQSHRFMSTSVGERVSITCKASQDVGNAVAWYQQKPGQSPKLLIYWTSTRHNGVPDRFTGSGSGTDFTLTISNVQGEDLADYFCQQYNRYPLTFGSGTKLEIKR
notes: as for B1
B6: I23RB6 (antibody, mouse IgG2a, kappa, V domains shown)
VH: QVQLVQSGAEVKKPGSSVKVSCKASGGTFSSYAISWVRQAPGQGLEWMGGIIPIFGTANYAQKFQGRVTITADESTSTAYMELSSLRSEDTAVYYCARGRYIRSYDYFDYWGQGTLVTVSS
VL: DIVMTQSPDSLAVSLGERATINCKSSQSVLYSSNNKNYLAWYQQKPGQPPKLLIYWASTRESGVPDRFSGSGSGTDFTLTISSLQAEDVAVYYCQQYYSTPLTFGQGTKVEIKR
notes: phage display; human V, mouse IgG2a/kappa
B7: I23RB9 (antibody, mouse IgG2a, kappa, V domains shown)
VH: QVQLVQSGAEVKKPGSSVKVSCKASGGTFSSYAISWVRQAPGQGLEWMGGIIPIFGTANYAQKFQGRVTITADESTSTAYMELSSLRSEDTAVYYCARDRSYSYGLSGLGYYGFDYWGQGTLVTVSS
VL: EIVLTQSPATLSLSPGERATLSCRASQSVSSYLAWYQQKPGQAPRLLIYDASNRATGIPARFSGSGSGTDFTLTISSLEPEDFAVYYCQQRSNWPLTFGQGTKVEIKR
notes: as for B6
B8: I23RB104 (antibody, mouse IgG2a, kappa, V domains shown)
VH: EVKLVESGGGLVKPGGSLKLSCAASGFTFSSYAMSWVRQTPEKRLDWVASISTGGSTYYPDSVKGGFTISRDIARNTLSLQMTSLRSEDTAMYYCARGPHYYGGSYPFAYWGQGTTLTVSS
VL: DIQMTQSPASLSVSVGETVTITCRASENIYSNLAWYQQKQGKSPQLLVYAATNLADGVPSRFSGSGSGTQYSLKINSLQSEDFGSYYCQHFWGTPPTFGSGTKLEIKR
notes: as for B1
B9: I23RB328 (antibody, mouse IgG2a, kappa, V domains shown)
VH: B6 VH
VL: B7 VL with I58V, S67T, E79Q, F83V, S92N, N93S, W94T
notes: as for B6
B10: I23RB189 (antibody, mouse IgG2a, kappa, V domains shown)
VH: DVQLQESGPDLVKPSQSLSLTCTVTGYSITSGYNWHWIRQFPGNKLEWMGYIHSSGTTNYSPSLRSRLSITRDTSKNQFFLQLNSVTTEDTATYYCTRQLGLKAMEYWGQGTTLTVSS
VL: DIVLTQSPKSMSMSVGERVTLSCKASENVGTYVSWYQQKPEQSPKLLMYGASNRYTGVPDRFTGSGSATDFTLTISSVQAEDLADYHCGQSYSYPPTFGGGTKLEIKR
notes: as for B1
B11: I23RB278 (antibody, mouse IgG2a, kappa, V domains shown)
VH: EVQLLESGGGLVQPGGSLRLSCAASGFTFSSYAMSWVRQAPGKGLEWVSAISGSGGSTYYADSVKGRFTISRDNSKNTLYLQMNSLRAEDTAVYYCVRGGSLGGGFYFDYWGQGTLVTVSS
VL: not shown
notes: as for B6
B12: I23RB332 (antibody, mouse IgG2a, kappa, V domains shown)
VH: QVQLQQPGAELVMPGASVKLSCKASGYTFTSYWMHWVKQRPGQGLEWIGEIDPSDSYTNYNQKFKGKSTLTVDKSSSTAYMQLSSLTSEDSAVYYCARSYAFDYWGQGTTVTVSS
VL: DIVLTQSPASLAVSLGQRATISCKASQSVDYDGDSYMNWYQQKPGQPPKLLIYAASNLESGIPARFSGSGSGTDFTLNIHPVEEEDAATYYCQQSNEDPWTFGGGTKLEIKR
notes: phage display; mouse V, mouse IgG2a/kappa
B13: I23RB149 (antibody, mouse IgG2a, kappa, V domains shown)
VH: B10 VH with S54F, G56D, T57R, S61N, R65K, L68I, T88S, T97S, M105L, E106D
VL: B2 VL with I2V, V3Q, L4M, T5I, F12P, W101L, G105A
notes: as for B1
B14: I23RB330 (antibody, mouse IgG2a, kappa, V domains shown)
VH: B7 VH
VL: B7 VL with W94T
notes: as for B6

The target in the first assay is T1, human IL-23R extracellular domain (ECD) …. The experiment in a line: column 'Affinity to hu IL-23R ECD' (summary of SPR data).
As for B1, the Kd lay in the range of 26 to 68 nM.
Same read-out and setting: under B2 stands 1 nM; under B3, 2 nM; under B4, 36 to 46 nM.
On the same count and under the same terms, under B5 stands 2 nM.

In the next assay the target is T2, human IL-23R expressed on the cell …. The experiment in a line: flow cytometry on human IL-23R iLite cells, Expt A (1-point). On the procedure: Human IL-23R iLiTe cell single concentration mAb Binding. Anti-IL-23R mouse IgG₂ₐ mAbs derived from phage panning were tested for binding to human IL-23R expressing iLiTe cells, where a PE conjugated anti mouse secondary antibody detected mAbs bound to the receptor on the cells. […] The next day 100,000 cells were added to each well of a 96 well V bottom plate (Costar, Catalog #3357), centrifuged at 450× gravity for 2 minutes, and then supernatants were decanted. […] Antibodies diluted to 3 μg/mL in Stain Buffer (BSA) (BD Pharmagen, Catalog #554657) were added at 100 μL/well and incubated on ice for 50 minutes, then plates were centrifuged and supernatants were decanted. […] Cells were washed by adding 100 μL/well of Stain Buffer followed by centrifugation and decanting of the supernatants. Cells were resuspended in 100 μL/well of Stain Buffer and analyzed on the Becton Dickenson LSR II FACS instrument with HTS module. Data was analyzed using FlowJo software (Treestar) to obtain geometric mean fluorescence intensities.
For the molecule B6, the “MFI @ 20 nM” value amounted to 139 MFI.
On the same count and under the same terms, to B7 belongs 86 MFI.

The target is the same in a further assay. The experiment in a line: flow cytometry on human IL-23R HEK cells, Expt D (8-point, 96well). The method in brief: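 Serially diluted IL-23R mAbs bound to mixed HEK-IL-23R and parental HEK cells for 30 min at 37 °C, in duplicate. After washes, 647 detection antibody geometric MFI measured on single viable (Sytox Green-negative) cells and fitted to a variable-slope dose-response against log mAb concentration.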
Molecule B1 registered an EC50 of 0.7 nM. This lies in the sub-nanomolar range.
The same measure, in the same setting: to B2 belongs ~0.6 nM.
In turn, B3 yielded a concentration giving a half-maximal response (EC50) of 0.4 nM.
With B4, the response was half-maximal at 1.2 nM (EC50).
On the same count and under the same terms, to B5 belongs 4.4 nM.

For the next assay the target is unchanged. The experiment in a line: flow cytometry on human IL-23R HEK cells, Expt E (11-point, 384well). The method in brief: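 Antibody bound to HEK-IL-23R cells 30 min at 37 °C over 11 concentrations; after washes, Sytox Green added and cells run on iQue. Geometric MFI of 647 detection antibody on single viable cells fitted by variable-slope dose–response.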
As to B1, the EC50 was > 50 nM and the “MFI (6.4 nM)” value was 118000 MFI.
For B2, in that order: 13.5 nM and 64000 MFI.
For B3, in that order: 4.5 nM and 228000 MFI.
In the same order, the values of B4 are 8.3 nM and 185000 MFI.
For the molecule B5, the EC50 was > 50 nM and the “MFI (6.4 nM)” value came to 52800 MFI.

A further assay shares this target. The experiment in a line: flow cytometry on human IL-23R HEK cells, Expt D (8-point, 96well); legend: N-No cell binding observed. Here is the method: HEK-IL-23R cell concentration response mAb binding (8-point, 96-well assay). […] HEK-IL-23R and HEK-parental cells (12.5 μL of each, 120000 cells total) were plated in 2× replicate on 96-well V-bottom plates (Corning, Cat #3357) into 37° C. warmed Assay medium containing serially diluted IL-23R mAbs to a final volume of 150 μL. IL-23R mAbs were allowed to bind to cells for 30 minutes, at 37° C. […] Cells were next washed twice in ice-cold stain buffer, then resuspended in a final volume of 30 μL with Sytox Green viability dye (ThermoFisher, Cat #S7020). Plates were kept on ice until run for analysis on the iQue. All washes were performed by centrifugation (800 rcf, 3 minutes) followed by flick decantation to remove supernatants. Cell-binding to HEK-IL-23R cells was measured with FlowJo, by gating for single, viable cells and determining the geometric mean fluorescence intensity (MFI) for the 647 detection antibody. Geometric mean fluorescence intensities were plotted over log mAb concentrations fitted with a dose response curve with variable slope using GraphPad Prism.
Consider B8, for which the binding result was “no binding”.
With B9, the binding result is reported as “no binding”.
Same read-out and setting: under B10 stands “no binding”; under B11, “no binding”.
The same measure, in the same setting: to B12 belongs “no binding”; to B13, “no binding”.
Same read-out and setting: to B14 belongs “no binding”.
